This passage reports buried solvent accessible surface area (crossover interface) results from patent US20240295565A1 (Genentech, published 2024).

The target of this test is human UNC80 (uncoordinated 80; protein unc-80 homolog) (human) (UniProt Q8N2C7). Description: cryo-EM structure, crossover interface.
human UNC80 (uncoordinated 80; protein unc-80 homolog) (human), sequence (Q8N2C7 whole entry): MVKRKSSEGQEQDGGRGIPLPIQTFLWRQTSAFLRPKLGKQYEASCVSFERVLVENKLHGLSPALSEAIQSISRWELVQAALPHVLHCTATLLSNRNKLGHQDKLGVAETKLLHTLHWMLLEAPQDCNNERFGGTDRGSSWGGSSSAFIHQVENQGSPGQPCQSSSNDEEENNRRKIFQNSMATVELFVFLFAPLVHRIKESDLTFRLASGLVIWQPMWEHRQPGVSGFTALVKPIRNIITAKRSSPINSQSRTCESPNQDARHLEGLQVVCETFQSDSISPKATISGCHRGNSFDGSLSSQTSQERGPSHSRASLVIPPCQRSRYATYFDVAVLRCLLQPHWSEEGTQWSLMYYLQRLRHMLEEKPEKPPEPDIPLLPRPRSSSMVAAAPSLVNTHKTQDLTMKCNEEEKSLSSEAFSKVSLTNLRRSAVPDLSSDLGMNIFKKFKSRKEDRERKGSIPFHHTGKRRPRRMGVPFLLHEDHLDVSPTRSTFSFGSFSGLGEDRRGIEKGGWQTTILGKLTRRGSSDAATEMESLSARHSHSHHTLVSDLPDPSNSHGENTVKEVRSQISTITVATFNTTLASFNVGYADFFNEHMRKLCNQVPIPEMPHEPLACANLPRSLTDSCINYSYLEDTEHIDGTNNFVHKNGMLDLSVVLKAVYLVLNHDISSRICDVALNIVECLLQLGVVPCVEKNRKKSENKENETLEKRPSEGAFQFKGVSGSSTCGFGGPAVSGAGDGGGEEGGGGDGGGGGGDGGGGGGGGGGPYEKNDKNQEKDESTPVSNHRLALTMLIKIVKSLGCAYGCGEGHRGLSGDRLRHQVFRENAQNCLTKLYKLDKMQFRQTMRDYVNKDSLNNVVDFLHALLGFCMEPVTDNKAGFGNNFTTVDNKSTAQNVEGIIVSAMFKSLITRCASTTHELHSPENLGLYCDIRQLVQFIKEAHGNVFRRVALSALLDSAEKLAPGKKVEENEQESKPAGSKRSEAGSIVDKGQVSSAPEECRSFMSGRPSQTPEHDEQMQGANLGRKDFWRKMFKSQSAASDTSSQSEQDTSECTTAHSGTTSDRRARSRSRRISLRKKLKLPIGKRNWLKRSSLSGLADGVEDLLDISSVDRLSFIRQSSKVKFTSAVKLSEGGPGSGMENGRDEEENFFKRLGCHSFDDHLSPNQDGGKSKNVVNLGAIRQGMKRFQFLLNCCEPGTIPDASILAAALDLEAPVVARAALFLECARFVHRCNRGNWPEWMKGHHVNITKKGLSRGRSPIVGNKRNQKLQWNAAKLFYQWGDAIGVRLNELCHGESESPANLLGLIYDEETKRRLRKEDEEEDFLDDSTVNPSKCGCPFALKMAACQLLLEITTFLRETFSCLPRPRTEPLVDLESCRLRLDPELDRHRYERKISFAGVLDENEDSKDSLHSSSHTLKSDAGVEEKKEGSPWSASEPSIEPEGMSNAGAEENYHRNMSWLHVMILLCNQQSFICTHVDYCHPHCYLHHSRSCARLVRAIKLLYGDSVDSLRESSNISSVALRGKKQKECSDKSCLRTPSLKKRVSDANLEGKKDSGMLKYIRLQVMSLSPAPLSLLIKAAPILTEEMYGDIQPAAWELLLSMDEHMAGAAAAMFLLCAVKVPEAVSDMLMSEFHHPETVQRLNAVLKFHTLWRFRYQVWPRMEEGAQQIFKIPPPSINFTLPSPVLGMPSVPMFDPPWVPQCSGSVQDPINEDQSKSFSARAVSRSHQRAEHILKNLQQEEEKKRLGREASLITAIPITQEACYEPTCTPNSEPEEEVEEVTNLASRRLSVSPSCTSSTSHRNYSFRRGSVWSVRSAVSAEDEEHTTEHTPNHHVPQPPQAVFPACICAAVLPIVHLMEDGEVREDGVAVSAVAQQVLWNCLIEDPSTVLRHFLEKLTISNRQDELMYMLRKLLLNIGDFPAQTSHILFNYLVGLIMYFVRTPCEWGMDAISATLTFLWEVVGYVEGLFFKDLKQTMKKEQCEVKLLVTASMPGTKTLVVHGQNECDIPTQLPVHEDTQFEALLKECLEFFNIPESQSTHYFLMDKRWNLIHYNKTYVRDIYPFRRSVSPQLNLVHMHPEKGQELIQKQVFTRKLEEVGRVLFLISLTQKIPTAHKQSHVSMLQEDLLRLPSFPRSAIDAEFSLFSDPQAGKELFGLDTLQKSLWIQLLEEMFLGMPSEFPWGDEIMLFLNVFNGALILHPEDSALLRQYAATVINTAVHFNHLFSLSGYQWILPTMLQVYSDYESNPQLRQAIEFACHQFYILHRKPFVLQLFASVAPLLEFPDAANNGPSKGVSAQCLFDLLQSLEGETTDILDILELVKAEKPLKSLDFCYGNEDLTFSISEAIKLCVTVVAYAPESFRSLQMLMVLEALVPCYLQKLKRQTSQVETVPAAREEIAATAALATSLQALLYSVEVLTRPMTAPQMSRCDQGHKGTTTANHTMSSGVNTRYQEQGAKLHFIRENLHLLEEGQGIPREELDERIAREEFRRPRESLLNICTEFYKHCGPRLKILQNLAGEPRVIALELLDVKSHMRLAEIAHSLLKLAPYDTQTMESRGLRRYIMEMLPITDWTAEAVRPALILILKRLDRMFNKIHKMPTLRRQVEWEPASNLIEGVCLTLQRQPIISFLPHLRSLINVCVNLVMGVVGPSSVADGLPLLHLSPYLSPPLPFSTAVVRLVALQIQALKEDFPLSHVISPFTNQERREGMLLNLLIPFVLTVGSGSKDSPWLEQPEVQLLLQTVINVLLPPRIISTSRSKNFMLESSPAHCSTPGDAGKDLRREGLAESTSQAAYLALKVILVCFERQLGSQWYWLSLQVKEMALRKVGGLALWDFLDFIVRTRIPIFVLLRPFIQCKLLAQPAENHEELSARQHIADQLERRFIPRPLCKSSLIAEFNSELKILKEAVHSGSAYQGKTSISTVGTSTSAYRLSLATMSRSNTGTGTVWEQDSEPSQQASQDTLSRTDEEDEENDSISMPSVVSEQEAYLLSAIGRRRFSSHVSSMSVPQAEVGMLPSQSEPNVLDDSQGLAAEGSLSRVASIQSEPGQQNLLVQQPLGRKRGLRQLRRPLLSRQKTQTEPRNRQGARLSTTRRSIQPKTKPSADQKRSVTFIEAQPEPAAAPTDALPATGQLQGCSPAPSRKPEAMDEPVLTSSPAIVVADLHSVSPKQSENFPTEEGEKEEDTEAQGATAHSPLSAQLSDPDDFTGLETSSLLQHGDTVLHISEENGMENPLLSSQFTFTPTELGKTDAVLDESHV

“human UNC79 (uncoordinated 79; protein unc-79 homolog), Q9P2D8 1-2635” returned a buried solvent accessible surface area (crossover interface) of 3000 A2.
